The source of these data is PMC9098913, “In vitro reconstitution of Escherichia coli divisome activation” (Nature Communications, 2022).

For one data set, the system named is FtsZ. As for the experimental part:
Additionally, the reaction chamber contained 4 mM ATP and 4 mM GTP, as well as a scavenging system to minimize photobleaching effects: 30 mM d-glucose, 0.050 mg ml^−1 Glucose Oxidase, 0.016 mg ml^−1 Catalase, 1 mM DTT and 1 mM Trolox. Prior addition of all components a corresponding buffer volume was removed from the chamber to obtain a total reaction volume of 100 µl. The dynamic protein pattern was monitored by time-lapse TIRF microscopy at one frame per 2 s and 50 ms exposure time.

The next data set concerns FtsZ filaments. Briefly: FtsZ turnover / lifetime / off-rate, single-molecule tracking. It is filed as biochemical, E. coli. As for the experimental part: Single-molecule experiments were performed as described previously. In short, individual FtsZ proteins were imaged at single-molecule level by adding small amounts of Cy5-labelled FtsZ (200 pM) to a chamber with 0.2 or 0.4 µM FtsA and 1.25 μM Alexa488-FtsZ.
Single molecules of FtsA or FtsZ were tracked using the TrackMate plugin from ImageJ[43]. To obtain the residence time of FtsZ and FtsA, we performed a residence time analysis as described before[40],[47]. Shortly, single molecules were imaged at different acquisition rates (0.1–2 s) and the lifetime of the molecules was extracted from each data set. To account for photobleaching effect, the obtained lifetimes were plotted against the acquisition rate. […] Furthermore, we extracted the diffusion coefficient of FtsA single molecules at increasing concentrations. For this, we filtered the obtained data, by considering only trajectories which are present on the membrane for more than 0.4 s. […] Subsequently, the diffusion coefficient of FtsA molecules was estimated by fitting an MSD curve to each individual trajectory.

B1: FtsA R286W (protein)
chain: MIKATDRKLVVGLEIGTAKVAALVGEVLPDGMVNIIGVGSCPSRGMDKGGVNDLESVVKCVQRAIDQAELMADCQISSVYLALSGKHISCQNEIGMVPISEEEVTQEDVENVVHTAKSVRVRDEHRVLHVIPQEYAIDYQEGIKNPVGLSGVRMQAKVHLITCHNDMAKNIVKAVERCGLKVDQLIFAGLASSYSVLTEDERELGVCVVDIGGGTMDIAVYTGGALRHTKVIPYAGNVVTSDIAYAFGTPPSDAEAIKVRHGCALGSIVGKDESVEVPSVGGRPPWSLQRQTLAEVIEPRYTELLNLVNEEILQLQEKLRQQGVKHHLAAGIVLTGGAAQIEGLAACAQRVFHTQVRIGAPLNITGLTDYAQEPYYSTAVGLLHYGKESHLNGEAEVEKRVTASVGSWIKRLNSWLRKEF
modifications: Cy3 or Cy5 at the N-terminus in the labelled form (labelled CLEPTGG peptide conjugated to the 5xGly tag by sortagging); unlabelled protein also used; left off: TwinStrep-SUMO, N-terminal, cleaved | 5x
With B1, in the data set on FtsZ, the “FtsZ fluorescence intensity compared to the wild-type protein” value is given as “increased”. Besides, the “FtsZ turnover compared to the wild-type protein” value with FtsZ filaments is “slightly decreased”.
